Measurements taken from PMC8149476 (Cell Reports Medicine, 2021).

B1: anti-NOTCH3 inhibitory (anti-N3(i)) mAb clone 75 (antibody, V domains shown)
VH: EVQLVESGGGLVQPGGSLRLSCAASGYAFTDYWMTWVRQAPGKGLEWVAEISPNSGGTNFNEKFKGRFTISVDNAKNSLYLQMNSLRAEDTAVYYCARGEIRYNWFAYWGQGTLVTVSS
VL: DIQMTQSPSSLSASVGDRVTITCKASQNVGNNIAWYQQKPGKAPKLLIYYASNRYTGVPSRFSGSGYGTDFTLTISSLQPEDFATYYCQRLYNSPFTFGGGTKVEIK
B2: Anti-N3(i)-vc0101 ADC (antibody, V domains shown)
VH: B1 VH
VL: B1 VL

Assays:
[1] = target: human NOTCH3 NRR_AviHis recombinant protein (Homo sapiens, UniProt Q9UM47); experiment: SPR
[2] = target: human NOTCH3 receptor expressed on U2OS cells (U2OS-hN3) (human, UniProt Q9UM47); experiment: ELISA
[3] = target: mouse NOTCH3 (mN3) expressed on U2OS cells (U2OS-mN3) (mouse, UniProt Q61982); experiment: ELISA
[4] = target: human NOTCH1 receptor expressed on U2OS cells (U2OS-hN1) (Homo sapiens, UniProt P46531); experiment: ELISA
[5] = target: mouse NOTCH1 receptor expressed on U2OS cells (U2OS-mN1) (Mus musculus, UniProt Q01705); experiment: ELISA
[6] = target: NOTCH3 endogenous on MDA-MB-468 cells (human (endogenous in MDA-MB-468), UniProt Q9UM47); experiment: immunostaining of cells or tissue
Sequence of NOTCH3 endogenous on MDA-MB-468 cells (Q9UM47 40-2321): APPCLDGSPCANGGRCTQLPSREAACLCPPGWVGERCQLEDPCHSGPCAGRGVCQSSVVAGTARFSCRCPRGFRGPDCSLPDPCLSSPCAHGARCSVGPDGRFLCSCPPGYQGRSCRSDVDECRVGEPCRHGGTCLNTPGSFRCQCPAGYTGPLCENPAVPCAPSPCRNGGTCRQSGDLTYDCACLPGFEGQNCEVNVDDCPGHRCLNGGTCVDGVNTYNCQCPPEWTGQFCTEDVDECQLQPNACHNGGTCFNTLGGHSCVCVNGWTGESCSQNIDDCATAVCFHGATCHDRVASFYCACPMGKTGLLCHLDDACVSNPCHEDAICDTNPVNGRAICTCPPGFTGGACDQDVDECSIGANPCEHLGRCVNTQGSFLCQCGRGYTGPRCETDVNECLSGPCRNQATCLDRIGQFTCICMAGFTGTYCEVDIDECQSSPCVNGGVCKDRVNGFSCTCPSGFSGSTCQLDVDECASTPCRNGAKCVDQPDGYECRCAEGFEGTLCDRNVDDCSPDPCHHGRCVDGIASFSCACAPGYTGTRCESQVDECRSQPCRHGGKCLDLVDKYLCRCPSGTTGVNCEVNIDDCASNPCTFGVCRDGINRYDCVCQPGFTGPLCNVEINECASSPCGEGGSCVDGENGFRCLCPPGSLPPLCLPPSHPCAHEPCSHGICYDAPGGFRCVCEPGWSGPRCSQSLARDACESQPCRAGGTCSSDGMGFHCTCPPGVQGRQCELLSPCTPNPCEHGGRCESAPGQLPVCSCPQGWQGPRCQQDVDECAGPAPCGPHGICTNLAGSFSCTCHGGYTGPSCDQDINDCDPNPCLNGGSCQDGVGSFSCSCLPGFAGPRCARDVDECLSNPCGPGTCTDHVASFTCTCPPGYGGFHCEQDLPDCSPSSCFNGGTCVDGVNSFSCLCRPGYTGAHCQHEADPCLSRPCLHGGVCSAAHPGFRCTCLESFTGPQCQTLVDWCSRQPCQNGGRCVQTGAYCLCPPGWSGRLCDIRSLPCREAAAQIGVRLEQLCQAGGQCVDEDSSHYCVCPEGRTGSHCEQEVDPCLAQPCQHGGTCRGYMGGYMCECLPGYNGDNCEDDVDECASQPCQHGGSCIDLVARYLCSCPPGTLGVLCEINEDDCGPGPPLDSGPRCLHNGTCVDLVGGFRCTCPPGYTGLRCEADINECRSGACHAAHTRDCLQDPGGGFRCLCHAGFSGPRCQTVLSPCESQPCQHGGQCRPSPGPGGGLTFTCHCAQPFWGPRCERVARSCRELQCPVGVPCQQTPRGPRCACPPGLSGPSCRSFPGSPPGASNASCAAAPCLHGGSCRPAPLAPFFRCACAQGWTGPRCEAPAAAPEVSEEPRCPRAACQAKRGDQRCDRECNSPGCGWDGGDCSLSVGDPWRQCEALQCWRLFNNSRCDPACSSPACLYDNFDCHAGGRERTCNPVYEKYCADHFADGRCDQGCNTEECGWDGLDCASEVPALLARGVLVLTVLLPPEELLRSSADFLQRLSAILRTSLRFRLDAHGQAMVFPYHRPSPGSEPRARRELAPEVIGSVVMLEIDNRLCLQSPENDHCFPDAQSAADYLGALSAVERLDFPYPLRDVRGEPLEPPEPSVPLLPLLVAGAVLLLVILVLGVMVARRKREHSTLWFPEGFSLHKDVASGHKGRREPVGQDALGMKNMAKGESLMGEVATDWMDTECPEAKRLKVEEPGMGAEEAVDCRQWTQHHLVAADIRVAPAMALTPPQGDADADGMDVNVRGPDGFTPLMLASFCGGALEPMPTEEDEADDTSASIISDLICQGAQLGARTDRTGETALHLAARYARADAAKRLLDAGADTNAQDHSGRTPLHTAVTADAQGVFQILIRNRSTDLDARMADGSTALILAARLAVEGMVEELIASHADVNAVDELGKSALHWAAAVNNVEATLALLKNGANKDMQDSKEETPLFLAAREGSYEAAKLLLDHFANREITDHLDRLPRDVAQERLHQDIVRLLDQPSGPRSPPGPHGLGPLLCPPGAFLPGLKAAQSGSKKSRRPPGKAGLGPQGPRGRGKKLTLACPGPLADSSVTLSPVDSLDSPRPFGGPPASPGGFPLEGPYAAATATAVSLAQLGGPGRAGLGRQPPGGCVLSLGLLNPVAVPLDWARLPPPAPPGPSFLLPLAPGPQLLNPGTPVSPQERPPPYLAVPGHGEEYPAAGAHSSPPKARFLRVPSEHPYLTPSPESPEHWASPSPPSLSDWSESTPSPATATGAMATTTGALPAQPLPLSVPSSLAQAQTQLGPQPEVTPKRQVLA

Sequence of human NOTCH3 receptor expressed on U2OS cells (U2OS-hN3) (Q9UM47 40-2321): as above
Sequence of mouse NOTCH1 receptor expressed on U2OS cells (U2OS-mN1) (Q01705 19-2531): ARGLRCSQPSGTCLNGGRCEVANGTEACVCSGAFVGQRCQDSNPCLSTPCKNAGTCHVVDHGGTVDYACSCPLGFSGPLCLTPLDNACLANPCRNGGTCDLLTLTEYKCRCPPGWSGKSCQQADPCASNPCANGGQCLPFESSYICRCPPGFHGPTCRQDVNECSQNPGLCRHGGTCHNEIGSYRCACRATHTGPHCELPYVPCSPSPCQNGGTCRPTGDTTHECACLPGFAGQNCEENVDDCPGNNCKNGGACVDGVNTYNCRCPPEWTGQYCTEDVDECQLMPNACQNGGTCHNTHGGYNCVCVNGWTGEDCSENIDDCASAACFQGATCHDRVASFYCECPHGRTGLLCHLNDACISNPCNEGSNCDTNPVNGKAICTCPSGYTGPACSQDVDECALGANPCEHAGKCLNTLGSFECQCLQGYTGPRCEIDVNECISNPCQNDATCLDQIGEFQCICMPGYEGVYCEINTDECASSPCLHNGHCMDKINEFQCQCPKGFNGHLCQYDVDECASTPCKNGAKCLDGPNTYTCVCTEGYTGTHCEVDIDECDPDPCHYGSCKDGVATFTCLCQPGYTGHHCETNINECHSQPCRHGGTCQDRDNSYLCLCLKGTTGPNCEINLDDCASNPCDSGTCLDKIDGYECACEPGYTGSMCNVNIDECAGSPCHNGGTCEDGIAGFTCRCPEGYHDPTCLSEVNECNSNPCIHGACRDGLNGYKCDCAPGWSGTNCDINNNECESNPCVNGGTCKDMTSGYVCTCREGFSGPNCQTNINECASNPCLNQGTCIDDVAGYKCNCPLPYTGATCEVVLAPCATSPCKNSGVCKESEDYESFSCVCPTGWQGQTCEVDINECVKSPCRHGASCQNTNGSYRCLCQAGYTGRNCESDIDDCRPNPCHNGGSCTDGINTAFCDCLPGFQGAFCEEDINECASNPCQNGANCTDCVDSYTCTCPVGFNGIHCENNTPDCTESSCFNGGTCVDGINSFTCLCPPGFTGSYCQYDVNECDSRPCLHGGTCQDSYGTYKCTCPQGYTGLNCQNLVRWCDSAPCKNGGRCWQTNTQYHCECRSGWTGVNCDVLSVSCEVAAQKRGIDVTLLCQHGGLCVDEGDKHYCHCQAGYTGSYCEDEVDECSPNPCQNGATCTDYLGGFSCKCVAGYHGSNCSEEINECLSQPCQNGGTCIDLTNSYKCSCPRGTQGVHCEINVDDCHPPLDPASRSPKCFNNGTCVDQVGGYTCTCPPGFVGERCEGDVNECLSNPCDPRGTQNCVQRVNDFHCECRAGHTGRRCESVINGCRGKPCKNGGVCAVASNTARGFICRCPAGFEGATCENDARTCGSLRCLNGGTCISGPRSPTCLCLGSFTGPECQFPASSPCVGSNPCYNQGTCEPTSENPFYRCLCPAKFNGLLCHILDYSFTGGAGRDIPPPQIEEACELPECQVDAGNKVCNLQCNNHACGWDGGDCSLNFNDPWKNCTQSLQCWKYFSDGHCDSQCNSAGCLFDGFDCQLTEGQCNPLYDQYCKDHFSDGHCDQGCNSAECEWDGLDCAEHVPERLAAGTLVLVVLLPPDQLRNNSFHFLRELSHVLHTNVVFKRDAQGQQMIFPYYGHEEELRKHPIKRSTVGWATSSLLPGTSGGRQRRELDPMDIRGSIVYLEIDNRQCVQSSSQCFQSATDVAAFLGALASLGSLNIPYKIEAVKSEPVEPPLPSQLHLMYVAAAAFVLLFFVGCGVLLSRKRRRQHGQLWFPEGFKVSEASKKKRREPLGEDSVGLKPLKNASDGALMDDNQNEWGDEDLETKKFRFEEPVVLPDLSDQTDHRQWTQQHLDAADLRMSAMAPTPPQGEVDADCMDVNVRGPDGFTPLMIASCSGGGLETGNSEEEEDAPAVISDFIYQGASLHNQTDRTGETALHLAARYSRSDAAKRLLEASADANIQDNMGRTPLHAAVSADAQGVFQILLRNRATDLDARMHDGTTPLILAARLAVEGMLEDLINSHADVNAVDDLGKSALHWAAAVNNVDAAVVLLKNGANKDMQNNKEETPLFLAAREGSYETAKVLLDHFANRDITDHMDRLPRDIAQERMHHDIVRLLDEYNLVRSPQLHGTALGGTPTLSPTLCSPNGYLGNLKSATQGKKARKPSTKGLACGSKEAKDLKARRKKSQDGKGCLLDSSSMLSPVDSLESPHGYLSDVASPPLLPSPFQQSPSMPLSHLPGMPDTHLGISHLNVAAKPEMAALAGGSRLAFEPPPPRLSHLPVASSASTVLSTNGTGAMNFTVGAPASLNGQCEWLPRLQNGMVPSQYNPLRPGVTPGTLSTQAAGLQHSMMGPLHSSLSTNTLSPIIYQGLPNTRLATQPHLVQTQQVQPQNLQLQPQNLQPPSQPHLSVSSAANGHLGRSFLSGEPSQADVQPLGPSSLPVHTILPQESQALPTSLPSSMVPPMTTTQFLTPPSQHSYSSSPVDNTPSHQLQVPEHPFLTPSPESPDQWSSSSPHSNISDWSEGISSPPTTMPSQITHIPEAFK

Binder | binding result [1] | binding result [2] | binding result [3] | binding result [4] | binding result [5] | binding result [6]
B1 | binds | binds | no binding | no binding | no binding | binds
B2 |  | binds |  |  |  | 
